The Immune Epitope Database (IEDB)
Blank lines part the entries; values can stand above or below the sequence they belong to.

Columns and labels:
[1] = molecular target: HLA-B*35:01; assay: IEDB peptide-MHC binding, purified MHC/competitive/fluorescence; filed as Kd, often an IC50 or EC50 that approximates it; ≥ and ≤ were set here for values at or beyond the usual limits of such assays
[2] = molecular target: HLA-B*15:01; assay: IEDB peptide-MHC binding, purified MHC/direct/fluorescence; filed as Kd, often an IC50 or EC50 that approximates it; ≥ and ≤ were set here for values at or beyond the usual limits of such assays
[3] = molecular target: HLA-A*68:02; assay: IEDB peptide-MHC binding, purified MHC/competitive/radioactivity; filed as Kd, often an IC50 or EC50 that approximates it; ≥ and ≤ were set here for values at or beyond the usual limits of such assays; settings: source organism: Dengue virus 2 Jamaica/1409/1983
[4] = molecular target: HLA-B*58:01; assay: as above; settings: source organism: Dengue virus 2 Jamaica/1409/1983
[5] = molecular target: HLA-B*57:01; assay: as above; settings: source organism: Dengue virus 2 Jamaica/1409/1983
[6] = molecular target: HLA-A*24:02; assay: IEDB peptide-MHC binding, purified MHC/direct/fluorescence; filed as Kd, often an IC50 or EC50 that approximates it; ≥ and ≤ were set here for values at or beyond the usual limits of such assays
[7] = molecular target: HLA-B*18:01; assay: as above
[8] = molecular target: HLA-B*40:01; assay: as above
[9] = molecular target: HLA-A*02:01; assay: IEDB peptide-MHC binding, purified MHC/competitive/fluorescence; filed as Kd, often an IC50 or EC50 that approximates it; ≥ and ≤ were set here for values at or beyond the usual limits of such assays
[10] = molecular target: HLA-A*01:01; assay: as above
[11] = molecular target: HLA-C*03:03; assay: IEDB peptide-MHC binding, purified MHC/direct/fluorescence; filed as Kd, often an IC50 or EC50 that approximates it; ≥ and ≤ were set here for values at or beyond the usual limits of such assays; settings: source organism: Escherichia coli F11
[12] = molecular target: HLA-B*44:02; assay: as above
[13] = molecular target: HLA-A*02:01; assay: as above
[14] = molecular target: HLA-B*07:02; assay: as above
[15] = molecular target: HLA-A*11:01; assay: as above
[16] = molecular target: HLA-B*27:05; assay: as above
[17] = molecular target: HLA-B*46:01; assay: as above
[18] = molecular target: HLA-A*31:01; assay: as above
[19] = molecular target: HLA-A*69:01; assay: as above
[20] = molecular target: HLA-A*01:01; assay: as above
[21] = molecular target: HLA-B*58:01; assay: as above
[22] = molecular target: HLA-A*03:01; assay: as above
[23] = molecular target: HLA-A*11:01; assay: IEDB peptide-MHC binding, purified MHC/competitive/fluorescence; ≥ and ≤ were set here for values at or beyond the usual limits of such assays
[24] = molecular target: HLA-B*08:01; assay: IEDB peptide-MHC binding, purified MHC/competitive/fluorescence; filed as Kd, often an IC50 or EC50 that approximates it; ≥ and ≤ were set here for values at or beyond the usual limits of such assays; settings: source organism: Influenza A virus (A/parakeet/Narita/92A/98(H9N2))
[25] = molecular target: HLA-A*68:02; assay: as above; settings: source organism: Burkholderia mallei GB8 horse 4
[26] = molecular target: HLA-C*12:03; assay: IEDB peptide-MHC binding, purified MHC/direct/fluorescence; filed as Kd, often an IC50 or EC50 that approximates it; ≥ and ≤ were set here for values at or beyond the usual limits of such assays
[27] = molecular target: HLA-B*15:01; assay: IEDB peptide-MHC binding, purified MHC/competitive/fluorescence; filed as Kd, often an IC50 or EC50 that approximates it; ≥ and ≤ were set here for values at or beyond the usual limits of such assays; settings: source organism: Escherichia coli
[28] = molecular target: HLA-A*03:01; assay: as above; settings: source organism: Escherichia coli
[29] = molecular target: HLA-B*08:02; assay: IEDB peptide-MHC binding, purified MHC/direct/fluorescence; filed as Kd, often an IC50 or EC50 that approximates it; ≥ and ≤ were set here for values at or beyond the usual limits of such assays; settings: source organism: Giardia lamblia ATCC 50803
[30] = molecular target: HLA-A*26:01; assay: as above; settings: source organism: Giardia lamblia ATCC 50803
[31] = source organism: Mycobacterium tuberculosis C
[32] = source organism: Francisella tularensis subsp. holarctica LVS
[33] = source organism: Escherichia coli F11
[34] = source organism: Escherichia coli O157:H7
[35] = source organism: Vaccinia virus Copenhagen
[36] = source organism: Giardia lamblia ATCC 50803

Sequence: EQFWCGIPY
Kd [1, 31]: 0.2 nM
Kd [2, 31]: 0.0788 µM

Sequence: STSTWVTYGT
Kd [3]: 72.8 nM
Kd [4]: 1120 nM
Kd [5]: 130 nM

Sequence: EYIWRSLKI
Kd ([6]; source organism: Entamoeba histolytica): ≤ 0.001 µM

Sequence: MEVGNTVAF
Kd ([1]; source organism: Francisella tularensis subsp. tularensis FSC198): 558 nM
Kd [7, 32]: ≤ 0.001 µM
Kd [8, 32]: 1.6 nM

Kd [9, 33]: 0.8 nM
Kd [10, 33]: 13.5 nM
Kd [11]: 1460 nM
Sequence: RTDAWSYPV

Sequence: ITDITKYLY
Kd ([10]; source organism: Bacillus cereus G9241): 2.1 nM

Kd [12, 34]: ≥ 20 µM
Kd [7, 34]: ≥ 20 µM
Kd [13, 34]: ≥ 20 µM
Kd [14, 34]: 376 nM
Kd [15, 34]: ≥ 20 µM
Kd [8, 34]: ≥ 20000 nM
Kd [16, 34]: ≥ 20 µM
Kd [17, 34]: ≥ 20 µM
Kd [18, 34]: ≥ 20 µM
Kd [19, 34]: ≥ 20 µM
Kd [6, 34]: ≥ 20 µM
Kd [20, 34]: ≥ 20 µM
Kd [2, 34]: ≥ 20 µM
Kd [21, 34]: ≥ 20 µM
Kd [22, 34]: ≥ 20 µM
Sequence: LPPERRQPF

Sequence: DRSDGYFLK
IC50 [23, 35]: 31.8 µM

Sequence: FDERRNRYL
Kd [24]: ≥ 20 µM

Sequence: WAWPFAAVL
Kd [25]: 53.5 nM
Kd ([26]; source organism: Burkholderia mallei GB8 horse 4): ≤ 1 nM

Sequence: ATLEDDRER
IC50 ([23]; source organism: Variola virus): 49.4 µM

Kd ([26]; source organism: Homo sapiens): ≤ 1 nM
Sequence: FIFPASKVY

Sequence: YLYASFCTV
Kd [9, 35]: 3.2 nM
Kd [26, 35]: 34 nM

Kd ([10]; source organism: Escherichia coli): 3 nM
Kd [27]: 2400 nM
Kd [28]: ≥ 20 µM
Sequence: ITDYIVGYY

Sequence: SDRLHHDPL
Kd [12, 36]: ≥ 20 µM
Kd [29]: ≥ 20 µM
Kd [13, 36]: ≥ 20 µM
Kd [14, 36]: ≥ 20000 nM
Kd [15, 36]: ≥ 20 µM
Kd [8, 36]: 280 nM
Kd [16, 36]: ≥ 20 µM
Kd [17, 36]: ≥ 20 µM
Kd [18, 36]: ≥ 20 µM
Kd [19, 36]: ≥ 20 µM
Kd [6, 36]: ≥ 20 µM
Kd [20, 36]: ≥ 20 µM
Kd [2, 36]: ≥ 20 µM
Kd [21, 36]: ≥ 20 µM
Kd [30]: ≥ 20 µM
Kd [22, 36]: ≥ 20 µM
